Data set [1] concerns the target Sdo1 (Saccharomyces cerevisiae) (UniProt Q07953). As to the kind of experiment: ITC. The following applies: cited from earlier work.
Substrate in data set [2]: Nc1nc2c(ncn2[C@@H]2O[C@H](COP(=O)(O)OP(=O)(O)OP(=O)(O)O)[C@@H](O)[C@H]2O)c(=O)[nH]1
Briefly: GTP hydrolysis by PNP-coupled Enzchek phosphate assay (MESG, 360 nm), pH 7.5, 5 mM MgCl2, 6 µM Efl1 alone, Michaelis-Menten fit. It counts as biochemical. The following applies: 25.0 °C. As for the experimental part:
(§1) Finally, we measured the enzyme kinetics of mutant Efl1 R1086Q as an isolated enzyme and bound to Sdo1 using an enzymatic coupled assay with a purine nucleoside phosphorylase (PNP) enzyme. This analysis was extended to another disease mutation (EFL1 M882K) also located in domain IV of the GTPase using the equivalent yeast variant, Efl1 L910K [17]. The Km and kcat kinetic parameters were calculated using non-linear regression assuming a Michaelis–Menten model (Supplementary Table S1). […] The catalytic constant for mutant R1086Q and the wild-type enzyme consisted of 0.67 min^−1, and it was 0.58 min^−1 for mutant Efl1 L910K. […] In line with the proposed role of Sdo1 as a guanine exchange factor of Efl1, previous results have shown that the interaction of wild-type Efl1 with Sdo1 impacted its Km for GTP, decreasing its value 2–3-fold. The Km values for the complexes formed between Sdo1 and Efl1 mutants decreased by half with respect to their cognate-free counterpart and differed from each other. […] The measured Km value comprises all the microscopic rate constants of the individual reactions occurring in the enzyme, which include the binding to the substrate and product and the corresponding conformational changes.
Hydrolysis of GTP was measured using the Enzchek Phosphate Assay kit (Molecular Probes) as described by Webb. […]
Reactions were initiated and the GTPase was added after 3 min. Time courses were followed by recording the change in absorbance at 360 nm in a Cary 60 UV -Vis spectrophotometer (Agilent Technologies). Background absorbance was recorded prior to the addition of the GTPase and subtracted from the sample signals. The slope of the measured time courses corresponded to the GTP hydrolysis rate. […] Data were analysed by nonlinear regression to the M ichaelis-Menten equation with the program Origin Version 5.0 (OriginLab, Co., Northampton, MA). […]
(§2) Maximum emission at 440 nm was replotted as a function of nucleotide concentration and analysed

Data set [3] can be described thus: Enzyme kinetics of GTP hydrolysis (PNP coupled assay, Michaelis–Menten). Format: biochemical, Saccharomyces cerevisiae. The following applies: isolated enzyme. The method, then:
as §1
Hydrolysis of GTP was measured using the Enzchek Phosphate Assay kit (Molecular Probes) as described by Webb. Standard reactions consisted of 100 µL containing 6 µM of Efl1 R1086Q and Efl1 L910K, 0.3 mM MESG, 1.0 U purine nucleoside phosphorylase (PNP) and the indicated amounts of GTP. Measurements done in the presence of effector protein contained 25 µM of Sdo1.
The reaction buffer consisted of 50 mM HEPES -KOH pH 7.5, 150 mM NaCl, 5 mM MgCl2.
Reactions were initiated and the GTPase was added after 3 min. Time courses were followed by recording the change in absorbance at 360 nm in a Cary 60 UV -Vis spectrophotometer (Agilent Technologies). Background absorbance was recorded prior to the addition of the GTPase and subtracted from the sample signals. The slope of the measured time courses corresponded to the GTP hydrolysis rate. The concentration of releas ed phosphate was estimated using a molar absorption coefficient at 360 nm of 14,386 M -1 cm-1 previously described in [2]. Data were analysed by nonlinear regression to the M ichaelis-Menten equation with the program Origin Version 5.0 (OriginLab, Co., Northampton, MA). […]
M HEPES-KOH pH 7.4, 2.5 mM magnesium acetate, 50 mM sucrose, 2 mM DTT, 0.1 mM PMSF, 0.1 mM benzamidine, 8 mM putrescine, 1 mM spermidine. […]
Dilution at the end of each titration was no longer than 2.5% of the initial volume. Data were corrected for the background signal by subtracting the fluorescence of the same ligand concentration without the GTPase in the reaction mixture.
as §2

For data set [4], the system named is Tif6 bound to 60S subunits. As to the kind of experiment: Tif6 release assay with purified yeast components. It counts as biochemical, Saccharomyces cerevisiae. The following applies: 50 nM Efl1 variant, 50 nM Sdo1, 100 µM GTP, 30 °C, 10 min. As for the experimental part:
The release of Tif6 (yeast orthologue of eIF6) was performed as previously described in [3, 15]. Reaction mixtures contained 10 nM 60S subunits, 40 nM Tif6, 50 nM Efl1 variant, 50 nM Sdo1, and 100 µM GTP in buffer of 10 mM Tris-HCl at pH 7.4, 75 mM KCl, and 1.5 mM MgCl2 supplemented with RNAse inhibitors (Promega, Madison, WI, USA) and protease inhibitors free of EDTA (GoldBio, St. Louis, MO, USA). GTP was omitted in the negative control, and 50 mM EDTA was added as the positive control to disassemble the 60S ribosomal subunits. Reaction mixtures of 100 µL were incubated at 30 °C for 10 min and added on top of 150 µL of a 30% sucrose cushion prepared in the same buffer. Samples were centrifuged at 476,000× g for 30 min in an Optima tabletop MX ultracentrifuge with a TLA-100 rotor. The top 200 µL (free fraction) was recovered, and the remaining 50 µL was resuspended in 150 µL of the same buffer. Samples were precipitated with 30% trichloroacetic acid, electrophoresed in 10% Tris-glycine SDS-PAGE, transferred to a PVDF membrane, and immunoblotted with antibodies anti-eIF6 (PA531066; Thermo Scientific; dilution 1:3000) and anti-uL3 (OAAB09713; Aviva Systems Biology, San Diego, CA, USA; dilution 1:500) overnight at 4 °C. […] Signals were quantified using programme Image J version 1.8.0. […]

Here are results for two molecules from paper PMC9405973, “Altered Conformational Landscape upon Sensing Guanine Nucleotides in a Disease Mutant of Elongation Factor-like 1 (EFL1) GTPase” (Biomolecules, 2022).

As a reminder, the Kd is the concentration at which binding is half-saturated. For orientation: Km means the concentration of substrate that gives half-maximal velocity. What is called kcat is the number of substrate molecules converted per active site and unit of time at saturation.

Chain of Sdo1 (Saccharomyces cerevisiae) (Q07953 whole entry): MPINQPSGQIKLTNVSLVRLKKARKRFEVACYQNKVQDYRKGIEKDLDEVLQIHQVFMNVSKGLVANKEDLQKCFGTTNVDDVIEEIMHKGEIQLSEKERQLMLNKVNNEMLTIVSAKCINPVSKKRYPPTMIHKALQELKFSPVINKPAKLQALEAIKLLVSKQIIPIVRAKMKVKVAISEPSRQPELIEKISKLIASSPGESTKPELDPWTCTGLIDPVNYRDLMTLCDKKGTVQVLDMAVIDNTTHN

Regarding Efl1 (from UniProt P53893), in data set [1], the equilibrium dissociation constant (Kd) was 300 nM.

B1: Efl1 R1086Q (Saccharomyces cerevisiae S288C; R1086Q) (protein)
chain: MPRVESETYKRLQNDPSCIRNICIVAHVDHGKTSLSDSLLASNGIISQRLAGKIRFLDARPDEQLRGITMESSAISLYFRVLRKQEGSDEPLVSEHLVNLIDSPGHIDFSSEVSAASRLCDGAVVLVDVVEGVCSQTVTVLRQCWTEKLKPILVLNKIDRLITELQLTPQEAYIHLSKVIEQVNSVIGSFFANERQLDDLFWREQLEKNENAEYIEKDDSGIYFNPTDNNVIFASAIDGWGFNIGQLAKFYEQKLGAKRENLQKVLWGDFYMDPKTKKIINNKGLKGRSLKPLFTSLILENIWKIYQNIITSRDSEMVEKIAKTLNIKLLARDLRSKDDKQLLRTIMGQWLPVSTAVLLTVIEKLPSPLESQTDRLNTILVSESDTAAMDPRLLKAMKTCDKEGPVSAYVSKMLSIPREELPVESKRIASSDELMERSRKAREEALNAAKHAGMVENMAMMDLNDNSKNTSDLYKRAKDTVMTPEVGEQTKPKPSRNNDVFCVVSEPSSALDLEFEYEGEDDSDSQDNFGLDFVPTDIDPNDPLSSMFEYEEEDPLLESIKQISEDVNDEVDDIFDEKEECLVAFARIYSGTLRVGQEISVLGPKYDPKCPEEHIETAIITHLYLFMGKELVPLDVCPSGNIVGIRGLAGKVLKSGTLIEKGVQGVNLAGVNFHFTPIVRVAVEPANPVEMSKLVRGLKLLDQADPCVHTYVENTGEHILCTAGELHLERCLKDLTERFAGIEITHSEPAIPYRETFLSASDMNPPQNSQLGRGVHELLLSQYKITFRTFPLSGKVTDFLSQHQNSIKNILKTSTSSMDPVIESTGSSFLDKKSLLVAFEEVINQEEKSRELLSGFKVKLAGFGPSRVGCNILLSQDNLLGSLFEGTPAAFEYSDSIKNGFQLAVSEGPLANEPVQGMCVLVESVHKMSQDEIESIEDPRYQQHIVDLSGRLITSTRDAIHEAFLDWSPRIMWAIYSCDIQTSVDVLGKVYAVILQRHGKIISEEMKEGTPFFQIEAHVPVVEAFGLSEDIRKRTSGAAQPQLVFSGFECIDLDPFWVPTTEEELEELGDTADRENIARKHMNAIQRRKGLFIEEKVVENAEKQRTLKKN
notes: recombinantly expressed in S. cerevisiae; isolated GTPase
On to B1, for which the Michaelis constant (Km) in data set [2] is 146 µM. The turnover number (kcat) in data set [3] stood at 0.0112 s⁻¹. For the same molecule, the “release of Tif6 from the 60S subunit (distribution of Tif6 in free and bound fraction, immunoblot)” value in data set [4] is “reduced portion of Tif6 in the free fraction compared with that for the wild type”.
